Biological target: T1, recombinant HER2 extracellular domain (ECD) (human, UniProt P04626 23-652)
T1 construct: extracellular domain; also called HER2 ECD
Test: SPR (Biacore 8K), antibody captured by anti-human Fab, HER2 ECD injected, 1:1 fit
Procedure: (§1) HER2 extracellular domain (ECD) binding affinities of engineered anti-HER2 antibodies were measured by SPR using a Biacore 8K instrument. Antibodies were captured on Biacore™ Series S CM5 sensor chips immobilized with mouse anti-human Fab (human Fab capture kit from GE Healthcare) followed by injections of serial 3-fold dilutions of recombinant HER2 ECD at a flow rate of 30 μL/min. Each sample was analyzed using a 3-minute association followed by a 10-minute dissociation. After each injection, the sensor chip was regenerated using a 50 mM glycine pH2.0 regeneration buffer. A 1:1 Languir model of simultaneous fitting of kₒₙ and koff was used for kinetics analysis.

Binder	Kd [nM]
SEQ ID NO: 10 light chain paired with Anti-HER2_D2 heavy chain control (SEQ ID NO: 92) (antibody, human IgG1, kappa, V domains shown) VH: EVQLVESGGGLVQPGGSLRLSCAASGFTFTDYTMDWVRQAPGKGLEWVADVNPNSGGSIYNQRFKGRFTLSVDRSKNTLYLQMNSLRAEDTAVYYCARNLGPSFYFDYWGQGTLVTVSS VL: not shown	14
SEQ ID NO: 9 light chain paired with Anti-HER2_D2 heavy chain control (SEQ ID NO: 92) (antibody, human IgG1, kappa, V domains shown) VH: EVQLVESGGGLVQPGGSLRLSCAASGFTFTDYTMDWVRQAPGKGLEWVADVNPNSGGSIYNQRFKGRFTLSVDRSKNTLYLQMNSLRAEDTAVYYCARNLGPSFYFDYWGQGTLVTVSS VL: not shown	13

Biological target: T1, recombinant HER2 extracellular domain …
Test: as above
Remark: another data set of the same source
Procedure: as §1

Binder	Kd [nM]
SEQ ID NO: 10 light chain paired with anti-HER2_D2 heavy chain comprising the VH region of SEQ ID NO: 3 (antibody, V domains shown) VH: EVQLVESGGGLVQPGGSLRLSCAASGFTFTDYTMDWVRQAPGKGLEWVADVNPNSGQSIYNQRFKGRFTLSVDRSKNTLYLQMNSLRAEDTAVYYCARNLGPLFYFDYWGQGTLVTVSS VL: not shown	2.1
SEQ ID NO: 10 light chain paired with anti-HER2_D2 heavy chain comprising the VH region of SEQ ID NO: 1 (antibody, V domains shown) VH: EVQLVESGGGLVQPGGSLRLSCAASGFTFTDYTMDWVRQAPGKGLEWVADVNPNSGQSIYNQRFKGRFTLSVDRSKNTLYLQMNSLRAEDTAVYYCARNLGPSFYFDYWGQGTLVTVSS VL: not shown	4.2
SEQ ID NO: 10 light chain paired with anti-HER2_D2 heavy chain comprising the VH region of SEQ ID NO: 2 (antibody, V domains shown) VH: EVQLVESGGGLVQPGGSLRLSCAASGFTFTDYTMDWVRQAPGKGLEWVADVNPNSGGSIYNQRFKGRFTLSVDRSKNTLYLQMNSLRAEDTAVYYCARNLGPLFYFDYWGQGTLVTVSS VL: not shown	6.2

Biological target: T1, recombinant HER2 extracellular domain …
Test: as above
Remark: another data set of the same source
Procedure: as §1

Binder	Kd [nM]
Anti-HER2_D2 heavy chain comprising the VH region of SEQ ID NO: 2 paired with Anti-HER2_D4 light chain control (SEQ ID NO: 87) (antibody, V domains shown) VH: EVQLVESGGGLVQPGGSLRLSCAASGFTFTDYTMDWVRQAPGKGLEWVADVNPNSGGSIYNQRFKGRFTLSVDRSKNTLYLQMNSLRAEDTAVYYCARNLGPLFYFDYWGQGTLVTVSS VL: not shown	28
Anti-HER2_D2 heavy chain comprising the VH region of SEQ ID NO: 61 paired with Anti-HER2_D4 light chain control (SEQ ID NO: 87) (antibody, V domains shown) VH: EVQLVESGGGLVQPGGSLRLSCAASGFKFTDYTMDWVRQAPGKGLEWVADVNPNSGGSIYNQRFKGRFTLSVDRSKNTLYLQMNSLRAEDTAVYYCARNLGPSFYFDYWGQGTLVTVSS VL: not shown	17.5
Anti-HER2_D2 heavy chain comprising the VH region of SEQ ID NO: 63 paired with Anti-HER2_D4 light chain control (SEQ ID NO: 87) (antibody, V domains shown) VH: EVQLVESGGGLVQPGGSLRLSCAASGFHFTDYTMDWVRQAPGKGLEWVADVNPNSGGSIYNQRFKGRFTLSVDRSKNTLYLQMNSLRAEDTAVYYCARNLGPSFYFDYWGQGTLVTVSS VL: not shown	22.1
Anti-HER2_D2 heavy chain comprising the VH region of SEQ ID NO: 60 paired with Anti-HER2_D4 light chain control (SEQ ID NO: 87) (antibody, V domains shown) VH: EVQLVESGGGLVQPGGSLRLSCAASGFNFTDYTMDWVRQAPGKGLEWVADVNPNSGGSIYNQRFKGRFTLSVDRSKNTLYLQMNSLRAEDTAVYYCARNLGPSFYFDYWGQGTLVTVSS VL: not shown	28
Anti-HER2_D2 heavy chain comprising the VH region of SEQ ID NO: 68 paired with Anti-HER2_D4 light chain control (SEQ ID NO: 87) (antibody, V domains shown) VH: EVQLVESGGGLVQPGGSLRLSCAASGFTFTDYTMDWVRQAPGKGLEWVADVNPNSGGSIYNQRFKGRFTLSVDRSKNTLYLQMNSLRAEDTAVYYCARNLGPFFYFDYWGQGTLVTVSS VL: not shown	9.8
Anti-HER2_D2 heavy chain comprising the VH region of SEQ ID NO: 65 paired with Anti-HER2_D4 light chain control (SEQ ID NO: 87) (antibody, V domains shown) VH: EVQLVESGGGLVQPGGSLRLSCAASGFTFTDYTMDWVRQAPGKGLEWVADVNPNSGGSIYNHRFKGRFTLSVDRSKNTLYLQMNSLRAEDTAVYYCARNLGPSFYFDYWGQGTLVTVSS VL: not shown	35
Anti-HER2_D4 light chain control (SEQ ID NO: 87) paired with Anti-HER2_D2 heavy chain control (SEQ ID NO: 92) (antibody, human IgG1, kappa, V domains shown) VH: EVQLVESGGGLVQPGGSLRLSCAASGFTFTDYTMDWVRQAPGKGLEWVADVNPNSGGSIYNQRFKGRFTLSVDRSKNTLYLQMNSLRAEDTAVYYCARNLGPSFYFDYWGQGTLVTVSS VL: not shown	42
Anti-HER2_D2 heavy chain comprising the VH region of SEQ ID NO: 62 paired with Anti-HER2_D4 light chain control (SEQ ID NO: 87) (antibody, V domains shown) VH: EVQLVESGGGLVQPGGSLRLSCAASGFMFTDYTMDWVRQAPGKGLEWVADVNPNSGGSIYNQRFKGRFTLSVDRSKNTLYLQMNSLRAEDTAVYYCARNLGPSFYFDYWGQGTLVTVSS VL: not shown	18.3
Anti-HER2_D2 heavy chain comprising the VH region of SEQ ID NO: 69 paired with Anti-HER2_D4 light chain control (SEQ ID NO: 87) (antibody, V domains shown) VH: EVQLVESGGGLVQPGGSLRLSCAASGFTFTDYTMDWVRQAPGKGLEWVADVNPNSGGSIYNQRFKGRFTLSVDRSKNTLYLQMNSLRAEDTAVYYCARNLGPDFYFDYWGQGTLVTVSS VL: not shown	10.2
Anti-HER2_D2 heavy chain comprising the VH region of SEQ ID NO: 1 paired with Anti-HER2_D4 light chain control (SEQ ID NO: 87) (antibody, V domains shown) VH: EVQLVESGGGLVQPGGSLRLSCAASGFTFTDYTMDWVRQAPGKGLEWVADVNPNSGQSIYNQRFKGRFTLSVDRSKNTLYLQMNSLRAEDTAVYYCARNLGPSFYFDYWGQGTLVTVSS VL: not shown	28
Anti-HER2_D2 heavy chain comprising the VH region of SEQ ID NO: 66 paired with Anti-HER2_D4 light chain control (SEQ ID NO: 87) (antibody, V domains shown) VH: EVQLVESGGGLVQPGGSLRLSCAASGFTFTDYTMDWVRQAPGKGLEWVADVNPNSGGSIYNTRFKGRFTLSVDRSKNTLYLQMNSLRAEDTAVYYCARNLGPSFYFDYWGQGTLVTVSS VL: not shown	32.3
Anti-HER2_D2 heavy chain comprising the VH region of SEQ ID NO: 64 paired with Anti-HER2_D4 light chain control (SEQ ID NO: 87) (antibody, V domains shown) VH: EVQLVESGGGLVQPGGSLRLSCAASGFTFTDYTMDWVRQAPGKGLEWVADVNPNSGGSIYNRRFKGRFTLSVDRSKNTLYLQMNSLRAEDTAVYYCARNLGPSFYFDYWGQGTLVTVSS VL: not shown	21
Anti-HER2_D2 heavy chain comprising the VH region of SEQ ID NO: 70 paired with Anti-HER2_D4 light chain control (SEQ ID NO: 87) (antibody, V domains shown) VH: EVQLVESGGGLVQPGGSLRLSCAASGFTFTDYTMDWVRQAPGKGLEWVADVNPNSGGSIYNQRFKGRFTLSVDRSKNTLYLQMNSLRAEDTAVYYCARNLGPYFYFDYWGQGTLVTVSS VL: not shown	30
Anti-HER2_D2 heavy chain comprising the VH region of SEQ ID NO: 67 paired with Anti-HER2_D4 light chain control (SEQ ID NO: 87) (antibody, V domains shown) VH: EVQLVESGGGLVQPGGSLRLSCAASGFTFTDYTMDWVRQAPGKGLEWVADVNPNSGGSIYNQRFKGRFTLSVDRSKNTLYLQMNSLRAEDTAVYYCARNLGPWFYFDYWGQGTLVTVSS VL: not shown	6.1

Biological target: T1, recombinant HER2 extracellular domain …
Test: SPR (Biacore 8K), antibody captured by anti-human Fab, HER2 ECD injected

Binder	binding result
Anti-HER2_D2 light chain control (SEQ ID NO: 94) paired with Anti-HER2_D4 heavy chain control (SEQ ID NO: 93) (antibody, human IgG1, kappa, V domains shown) VH: not shown VL: DIQMTQSPSSLSASVGDRVTITCKASQDVSIGVAWYQQKPGKAPKLLIYSASYRYTGVPSRFSGSGSGTDFTLTISSLQPEDFATYYCQQYYIYPYTFGQGTKVEIKR	no binding

Biological target: T1, recombinant HER2 extracellular domain …
Test: SPR (Biacore 8K), antibody captured by anti-human Fab, HER2 ECD injected, 1:1 fit; LC SEQ ID NO: 87 paired with Anti-HER2_D2 heavy chain control (SEQ ID NO: 92)
Procedure: as §1

Binder	Kd [nM]
Anti-HER2_D4 light chain control (SEQ ID NO: 87) paired with Anti-HER2_D2 heavy chain control (SEQ ID NO: 92) (antibody, human IgG1, kappa, V domains shown) VH: EVQLVESGGGLVQPGGSLRLSCAASGFTFTDYTMDWVRQAPGKGLEWVADVNPNSGGSIYNQRFKGRFTLSVDRSKNTLYLQMNSLRAEDTAVYYCARNLGPSFYFDYWGQGTLVTVSS VL: not shown	41
